Measured values from patent US20030148420.

Biological target: T1, Aspergillus ochraceus 11 alpha hydroxylase
T1 chain: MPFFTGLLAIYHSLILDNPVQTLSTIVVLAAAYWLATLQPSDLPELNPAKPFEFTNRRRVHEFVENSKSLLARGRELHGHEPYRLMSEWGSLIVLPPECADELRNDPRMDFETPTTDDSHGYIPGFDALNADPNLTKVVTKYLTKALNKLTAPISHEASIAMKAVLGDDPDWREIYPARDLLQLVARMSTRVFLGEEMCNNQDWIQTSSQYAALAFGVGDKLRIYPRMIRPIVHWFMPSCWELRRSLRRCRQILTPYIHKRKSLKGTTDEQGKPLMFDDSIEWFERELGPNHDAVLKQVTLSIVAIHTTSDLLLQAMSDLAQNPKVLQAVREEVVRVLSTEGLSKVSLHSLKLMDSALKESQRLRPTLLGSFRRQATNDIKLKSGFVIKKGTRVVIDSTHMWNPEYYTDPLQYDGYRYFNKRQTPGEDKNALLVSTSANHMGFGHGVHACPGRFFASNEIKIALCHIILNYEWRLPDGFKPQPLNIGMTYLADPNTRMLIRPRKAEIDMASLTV

B1: human oxidoreductase (protein)
chain: MGDSHVDTSSTVSEAVAEEVSLFSMTDMILFSLIVGLLTYWFLFRKKKEEVPEFTKIQTLTSSVRESSFVEKMKKTGRNIIVFYGSQTGTAEEFANRLSKDAHRYGMRGMSADPEEYDLADLSSLPEIDNALVVFCMATYGEGDPTDNAQDFYDWLQETDVDLSGVKFAVFGLGNKTYEHFNAMGKYVDKRLEQLGAQRIFELGLGDDDGNLEEDFITWREQFWPAVCEHFGVEATGEESSIRQYELVVHTDIDAAKVYMGEMGRLKSYENQKPPFDAKNPFLAAVTTNRKLNQGTERHLMHLELDISDSKIRYESGDHVAVYPANDSALVNQLGKILGADLDVVMSLNNLDEESNKKHPFPCPTSYRTALTYYLDITNPPRTNVLYELAQYASEPSEQELLRKMASSSGEGKELYLSWVVEARRHILAILQDCPSLRPPIDHLCELLPRLQARYYSIASSSKVHPNSVHICAVVVEYETKAGRINKGVATNWLRAKEPAGENGGRALVPMFVRKSQFRLPFKATTPVIMVGPGTGVAPFIGFIQERAWLRQQGKEVGETLLYYGCRRSDEDYLYREELAQFHRDGALTQLNVAFSREQSHKVYVQHLLKQDREHLWKLIEGGAHIYVCGDARNMARDVQNTFYDIVAELGAMEHAQAVDYIKKLMTKGRYSLDVWS
  conversion of 4-androstene-3,17-dione (AD) to 11 alpha-hydroxy-AD, by HPLC: successfully catalyzed the conversion of the steroid substrate 4-androstene-3,17-dione (AD) to 11 alpha-hydroxy-AD
